This note sets out measurements from paper PMC6606807.

Assay [1] deals with PGT145 (human IgG1), as the ligand of CD16. Description: flow cytometry on cells. As to conditions: read off a plot; for other: Binding (AUC): area under the PGT145 staining curve, parent: est. 12000; for response: parent: est. 540. (In general: In flow cytometry, cells or beads pass a laser one at a time.)
The target in assay [2] is soluble SIVmac239 Env SOSIP.664 trimer, wild type (SIVmac239). Briefly: cryo-EM 2-D class averages; SIVmac239 Env trimers affinity purified with PGT145, ~6 mg/ml diluted 3:1 into n-dodecyl-beta-D-maltoside, plunge frozen; ~62,000 particles.

In the case of SIVmac239 Env WT K179S, in assay [1], the other: Binding (AUC) amounted to 46000 and the response is 1500 gMFI.
In the same order, the values of SIVmac239 Env WT K180S are 260000 and 6600 gMFI.
Taken in the same sequence, the figures for SIVmac239 Env WT K181S were 11000 and 450 gMFI.
In the same order, the values of SIVmac239 Env WT N171Q are 740 and 220 gMFI.
With SIVmac239 Env WT R177A, in assay [1], the other: Binding (AUC) was found to be 1300 and the response stood at 180 gMFI.
In general, stoichiometry N refers to a count of units in the complex or per binding partner. “soluble SIVmac239 Env SOSIP.664 trimer, wild type (complex)” registered a stoichiometry N in assay [2] of 3.
